Measurements published in the supplement of paper PMC10724198.
± gives the standard deviation of the averaged measurements.

system: Saccharomyces cerevisiae; experiment: protein stability index of tFT-peptide fusion (C-terminal peptide) (PSI (0-1 scale)); higher = more stable (slower turnover); settings: genetic background: wild type; temperature: 30 C
Method: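 Multiplexed protein stability (MPS) profiling in S. cerevisiae. Random 12-aa peptides (tFT-X12 library) are fused to the C-terminus of a sfGFP-mCherry tandem fluorescent timer, after mCherry and a GGGS linker. Cells are FACS-sorted into 8 mCherry/sfGFP bins and deep-sequenced. The protein stability index (PSI) is the read-weighted bin average, scaled from 0 (unstable) to 1 (stable). Only peptides with >10 reads are reported; cells were grown at 30 °C in SC-His with glucose.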
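Further: PSI is a weighted mean of sequencing reads over stability bins, variants kept only with over 10 reads, mCherry proximal and sfGFP distal, peptide attached via GGGS linker.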

Sequence | protein stability index
LFPSPPPPRSSL | 0.7697 ± 0.005
LFQVRLVDLSRI | 0.674 ± 0.049
LFRLFFVKACRF | 0.516 ± 0.0025
LFRLRLFPHPHF | 0.645 ± 0.087
LFRPGDLVYHSV | 0.727 ± 0.026
LFSLFLRSPLTS | 0.664 ± 0.035
LFSRDASSFRFF | 0.658 ± 0.032
LFVFSVCSWPRV | 0.579 ± 0.04
LFVSCGGCLAMF | 0.687 ± 0.0077
LFWARLSLVSLS | 0.495 ± 0.041
LFYHLFWLFCSC | 0.634 ± 0.046
LFYRTLPLPWPA | 0.742 ± 0.02
LGAGLIGCALVE | 0.645 ± 0.036
LGAIGFVVVGGL | 0.622 ± 0.029
LGALTPSIAGGP | 0.64 ± 0.01
LGCGDSRSMVSL | 0.6875 ± 0.0033
LGEAGGWSLGFG | 0.73 ± 0.018
LGFDRGGGGAGM | 0.675 ± 0.062
LGFFGGGRGAGG | 0.677 ± 0.016
LGFLRRERLVPS | 0.697 ± 0.057
LGFSCHGRPPCS | 0.699 ± 0.085
LGFVADLFVWSV | 0.673 ± 0.069
LGFVRLLFPSFS | 0.758 ± 0.022
LGFYGSYGRWWV | 0.779 ± 0.085
LGGCGWVDWWGL | 0.732 ± 0.0096

Sequence | protein stability index
LGGGGGGGACGE | 0.655 ± 0.022
LGGTGGFRGVRG | 0.691 ± 0.022
LGHITLSERFGS | 0.705 ± 0.21
LGKWWDEECGEI | 0.7834 ± 0.0042
LGLGERLSINTF | 0.70035 ± 0.00022
LGLSFYPPLIIS | 0.559 ± 0.0094
LGMCGTCQREVG | 0.708 ± 0.027
LGNFSLSARSYM | 0.727 ± 0.028
LGNMRTVEGWGG | 0.684 ± 0.051
LGPDSCRLPLAQ | 0.746 ± 0.067
LGRKWDCLGRYV | 0.637 ± 0.06
LGRPWRECIQIG | 0.66 ± 0.015
LGRTFEEEKYAY | 0.767 ± 0.13
LGSAAVPGLCRL | 0.853 ± 0.0092
LGSCPPPPAPPP | 0.638 ± 0.037
LGSCRCFAFVSL | 0.659 ± 0.023
LGSFGLASVDGL | 0.713 ± 0.02
LGSITDRLLRRR | 0.772 ± 0.14
LGSTPAVKPPCL | 0.688 ± 0.019
LGSYSALKIGWG | 0.592 ± 0.029
LGTLLWGGAGRG | 0.713 ± 0.01
LGVALARCLWGT | 0.677 ± 0.022
LGVGFFLGFRTG | 0.6508 ± 0.0048
LGVGGPSVREGE | 0.706 ± 0.034
LGVGGRWGGPGA | 0.691 ± 0.059

Sequence | protein stability index
LGVRGSMGPGGG | 0.683 ± 0.082
LGVWVGGRGVRG | 0.747 ± 0.037
LGWPWGGRGEGL | 0.606 ± 0.0069
LGWRLFNDVRRG | 0.707 ± 0.013
LGYRCETNYVPD | 0.631 ± 0.023
LHETKRQKKRKR | 0.7187 ± 0.0062
LHLPFLPSLPHP | 0.727 ± 0.042
LHPPAPRSPPPR | 0.639 ± 0.041
LHPPLPRPPYPP | 0.66 ± 0.029
LHPRPPLLPSLP | 0.608 ± 0.07
LHRFTYAEVVWA | 0.536 ± 0.031
LHSFLLSVGRGF | 0.681 ± 0.015
LIGRPLPRTFMH | 0.766 ± 0.074
LIKATAYRTNRQ | 0.745 ± 0.044
LIKVGRRREGTG | 0.691 ± 0.059
LILFLTTSSPLV | 0.608 ± 0.017
LILSSGSPAFKT | 0.66 ± 0.039
LIPTPPPHPPSP | 0.679 ± 0.023
LISGGLSWGDCW | 0.743 ± 0.0099
LISNTGTKWAMI | 0.674 ± 0.053
LISSTLRDQKDE | 0.701 ± 0.047
LISVWQLDVRSG | 0.579 ± 0.0023
LKALNKFEDTGN | 0.668 ± 0.018
LKAWQRRWEGVR | 0.752 ± 0.026
LKCGGVRCGSAN | 0.648 ± 0.061

Sequence | protein stability index
LKDEERYKRRKV | 0.709 ± 0.016
LKFCSTLLKFAS | 0.564 ± 0.037
LKLLIPPSFSLI | 0.611 ± 0.027
LKMGAWAHTETW | 0.645 ± 0.033
LKQNRIKCPWTL | 0.728 ± 0.017
LKTNECIPVTEK | 0.609 ± 0.029
LLAHLVIWAPSR | 0.634 ± 0.091
LLANYQRPSPLN | 0.705 ± 0.063
LLAPPLPAVPSF | 0.731 ± 0.006
LLFGMRPMLFSF | 0.576 ± 0.038
LLFLVHGLCFSS | 0.543 ± 0.028
LLFPALPPPPVR | 0.674 ± 0.028
LLFPCSVGLGVV | 0.686 ± 0.077
LLFRPTPCLPPL | 0.686 ± 0.022
LLFRSPPPTVHS | 0.769 ± 0.088
LLFSNRKVGQQF | 0.708 ± 0.011
LLGRPILINRPL | 0.661 ± 0.0083
LLGSGTVSGCAG | 0.642 ± 0.04
LLHYPHVPLSPI | 0.662 ± 0.021
LLICRLFLFTIW | 0.555 ± 0.12
LLIPPLPSLAPP | 0.759 ± 0.052
LLLFPLPLLPFH | 0.686 ± 0.037
LLLGLPLDVGDS | 0.708 ± 0.066
LLLRSSPVSLSR | 0.7162 ± 0.0034
LLLTLVFSFLSC | 0.531 ± 0.0088

Sequence | protein stability index
LLPLLPAPRPPF | 0.691 ± 0.0063
LLPPCYFFLTSP | 0.637 ± 0.093
LLPPPPLPPLPL | 0.796 ± 0.1
LLPPVLPPTLPP | 0.633 ± 0.0075
LLPRPSLDPSPP | 0.682 ± 0.11
LLPSLSPPPTPP | 0.655 ± 0.051
LLPSSLPFPPLR | 0.72 ± 0.06
LLPYPAEPSPRR | 0.713 ± 0.013
LLRLDGGAGRSV | 0.627 ± 0.079
LLRPPAPPPLPT | 0.642 ± 0.17
LLRRLILLQATW | 0.5677 ± 0.0053
LLSGPPVPPSWS | 0.653 ± 0.19
LLSLALFACSIC | 0.63 ± 0.023
LLSLLLLSSSPP | 0.70828 ± 0.00034
LLSNDNRIKTIR | 0.725 ± 0.047
LLSPLFCYSSRS | 0.6457 ± 0.0013
LLSPLLLLASLS | 0.534 ± 0.013
LLSSPSVSPPPD | 0.6754 ± 0.0022
LLSVSFVGWPLT | 0.634 ± 0.062
LLTTGGRWWRRP | 0.669 ± 0.03
LLVNSFLIFPPH | 0.68474 ± 0.00059
LLVPCLQPPFRV | 0.622 ± 0.023
LLVTPAPRSTHF | 0.648 ± 0.064
LLWNFNLCHCEE | 0.701 ± 0.011
LLYANDPTRPVI | 0.652 ± 0.015

Sequence | protein stability index
LMDIPGNPRSLY | 0.604 ± 0.072
LMGDRRLFSFSV | 0.719 ± 0.12
LMKSPGGTLTIR | 0.71 ± 0.053
LMPPHPLFLSDI | 0.724 ± 0.012
LMQTGVNNQNTT | 0.72 ± 0.035
LMWPTSHLPQPQ | 0.734 ± 0.092
LNDEKIKGKTTK | 0.732 ± 0.012
LNGSRDEHKVMS | 0.674 ± 0.022
LNIPARVSGAVV | 0.636 ± 0.017
LNLRIGDVMRGG | 0.682 ± 0.022
LNNAIAGGSVGI | 0.702 ± 0.074
LNSRQATLRPQT | 0.716 ± 0.021
LNVVLTRTSVRY | 0.657 ± 0.041
LNYRVLTKVDER | 0.717 ± 0.048
LPAILALVPRYP | 0.674 ± 0.022
LPAISSPIPPSL | 0.701 ± 0.048
LPAPLGPRIPSL | 0.753 ± 0.15
LPARFLIDFTRV | 0.688 ± 0.029
LPATCFSPPSSS | 0.687 ± 0.057
LPFLFTSFAPAA | 0.776 ± 0.081
LPGEHSEFNYLL | 0.7198 ± 0.0036
LPGGECSLKGQQ | 0.701 ± 0.079
LPGTTFTPPVAS | 0.662 ± 0.008
LPHCPLNVFPLV | 0.654 ± 0.034
LPHLFLSVPSSP | 0.665 ± 0.038

Sequence | protein stability index
LPLDSPSRPLPP | 0.722 ± 0.011
LPLFTIVPPFFF | 0.59 ± 0.011
LPLPGSFTLNYP | 0.733 ± 0.013
LPLPLLLFPPPH | 0.677 ± 0.041
LPLRPPPSLLSR | 0.689 ± 0.064
LPMGTRGPAPGP | 0.73 ± 0.12
LPNLTIPSRAIA | 0.623 ± 0.0054
LPPCLEYLRVLR | 0.658 ± 0.07
LPPFSSPLSSLR | 0.693 ± 0.016
LPPHRPPAPDLS | 0.674 ± 0.049
LPPLLPSLSHAR | 0.6459 ± 0.003
LPPLPHLLSLYL | 0.658 ± 0.076
LPPPLPPPPPPV | 0.651 ± 0.017
LPPPLVPPLPSP | 0.7017 ± 0.0023
LPPPPLLIPLPT | 0.605 ± 0.062
LPPPPPASPPSP | 0.703 ± 0.01
LPPPPPILHLPS | 0.6463 ± 0.005
LPPPPPPPPPPP | 0.60887 ± 2.4e-05
LPPPPPPSHPPP | 0.697 ± 0.018
LPPPPSAPHPSP | 0.668 ± 0.023
LPPPPYPEFYPC | 0.772 ± 0.0089
LPPPRPLPRPCP | 0.748 ± 0.096
LPPPRSLPPILS | 0.656 ± 0.017
LPPRPSPPRRPP | 0.666 ± 0.016
LPPSPPPPPRQS | 0.739 ± 0.013

Sequence | protein stability index
LPPSPPTPPQYT | 0.6977 ± 0.003
LPPSSPLPPPPP | 0.77 ± 0.047
LPRAGLVLSPLH | 0.661 ± 0.051
LPRERSFRLYKA | 0.739 ± 0.016
LPRPHARPPLSS | 0.583 ± 0.066
LPRPPPLAGPPL | 0.734 ± 0.013
LPRPPPPPPPSP | 0.827 ± 0.098
LPRPTRLRTTPA | 0.685 ± 0.044
LPRSSRFPSPSR | 0.765 ± 0.012
LPRVPCRLAPPP | 0.689 ± 0.055
LPSLASPRLIPS | 0.609 ± 0.0066
LPSLPPPPSPSS | 0.641 ± 0.029
LPSLTPPPLLLS | 0.582 ± 0.0083
LPSPLGSSIFSN | 0.693 ± 0.015
LPSSVLTAAPSA | 0.661 ± 0.076
LPSTHVPPEPLG | 0.679 ± 0.077
LPTATSFNALNS | 0.714 ± 0.072
LPTHYHQSHTEP | 0.681 ± 0.052
LPTPRRHFRPPP | 0.657 ± 0.028
LPTVVTAVHQGL | 0.671 ± 0.014
LPVPLPYFVSYF | 0.607 ± 0.009
